Data: patent US20240075161A1 (AUGUSTA UNIVERSITY RESEARCH INSTITUTE, published 2024)
Where no end group is shown, it is not given here. The star is where a group is joined. Biotin = O=C1N[C@H]2[C@H](CS[C@H]2CCCCC(=O)*)N1

Target: T1, CD206 on CD206-positive M2 macrophages (mouse) (mouse, UniProt Q61830 20-1456)
T1 construct: whole, on cells; No purified CD206 was used; also called CD206 receptor; CD206+ RAW264.7 cells
T1 sequence (looked up): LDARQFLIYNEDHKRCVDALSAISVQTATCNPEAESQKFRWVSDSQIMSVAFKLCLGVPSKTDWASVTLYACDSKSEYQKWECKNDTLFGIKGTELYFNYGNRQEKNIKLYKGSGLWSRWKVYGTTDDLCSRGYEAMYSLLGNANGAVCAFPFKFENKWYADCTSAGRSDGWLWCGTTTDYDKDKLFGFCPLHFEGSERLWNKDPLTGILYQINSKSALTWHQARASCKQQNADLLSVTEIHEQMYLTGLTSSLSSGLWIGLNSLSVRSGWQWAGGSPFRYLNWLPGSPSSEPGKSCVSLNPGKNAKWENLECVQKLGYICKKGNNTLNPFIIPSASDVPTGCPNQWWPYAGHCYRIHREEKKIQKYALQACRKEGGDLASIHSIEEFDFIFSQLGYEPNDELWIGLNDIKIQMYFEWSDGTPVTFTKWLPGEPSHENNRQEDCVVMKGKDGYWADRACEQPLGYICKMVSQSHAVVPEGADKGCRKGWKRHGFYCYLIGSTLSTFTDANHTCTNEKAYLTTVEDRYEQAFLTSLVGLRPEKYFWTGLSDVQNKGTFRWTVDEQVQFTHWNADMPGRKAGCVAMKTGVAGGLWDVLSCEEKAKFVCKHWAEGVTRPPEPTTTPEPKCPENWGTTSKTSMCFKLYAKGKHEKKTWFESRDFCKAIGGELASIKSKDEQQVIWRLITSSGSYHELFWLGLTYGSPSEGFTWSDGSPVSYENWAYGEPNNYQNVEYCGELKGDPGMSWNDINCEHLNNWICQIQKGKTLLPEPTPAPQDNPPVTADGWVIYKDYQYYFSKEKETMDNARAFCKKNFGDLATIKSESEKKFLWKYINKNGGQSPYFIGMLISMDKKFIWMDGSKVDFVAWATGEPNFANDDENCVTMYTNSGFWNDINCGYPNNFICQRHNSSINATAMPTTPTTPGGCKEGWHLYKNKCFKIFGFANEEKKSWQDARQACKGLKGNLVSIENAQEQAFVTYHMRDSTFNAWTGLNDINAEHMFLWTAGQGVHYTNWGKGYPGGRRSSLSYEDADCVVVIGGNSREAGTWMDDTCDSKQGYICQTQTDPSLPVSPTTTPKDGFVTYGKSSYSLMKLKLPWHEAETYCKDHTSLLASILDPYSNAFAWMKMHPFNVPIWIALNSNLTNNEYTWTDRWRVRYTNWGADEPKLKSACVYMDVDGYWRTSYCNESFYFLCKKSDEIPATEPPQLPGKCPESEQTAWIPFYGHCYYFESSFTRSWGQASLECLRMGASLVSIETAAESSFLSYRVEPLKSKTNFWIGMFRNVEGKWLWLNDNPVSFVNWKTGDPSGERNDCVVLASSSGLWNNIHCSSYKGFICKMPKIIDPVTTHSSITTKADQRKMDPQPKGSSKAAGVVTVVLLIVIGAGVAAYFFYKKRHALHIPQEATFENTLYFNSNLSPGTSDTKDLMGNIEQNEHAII
Assay: immunofluorescence of tumor, spleen and lung sections of 4T1 tumor-bearing mice after i.v. injection

- binding result: binds
B1: Biotinylated precision peptide (Biotin-CSPGAKVRC), rhodamine-labeled (peptide)
peptide: Biotin-CSPGAKVRC
modifications: cysteine pairing not given here; also: complex with rhodamine-tagged streptavidin
notes: Synthetic peptide (GeneScript); injected i.v. as a complex with rhodamine-streptavidin; also called Rhodamine red-labeled targeting peptide; rhodamine-labeled precision peptide
